Measurements reported in patent US20150361150A1.

Target: tyrosine-protein kinase KIT on the surface of human KIT+ GIST cell lines (GIST 882, GIST 48) (human) (UniProt P10721)
Assay: cell-based or functional assay

Sequence of UniProt P10721 (P10721 26-976): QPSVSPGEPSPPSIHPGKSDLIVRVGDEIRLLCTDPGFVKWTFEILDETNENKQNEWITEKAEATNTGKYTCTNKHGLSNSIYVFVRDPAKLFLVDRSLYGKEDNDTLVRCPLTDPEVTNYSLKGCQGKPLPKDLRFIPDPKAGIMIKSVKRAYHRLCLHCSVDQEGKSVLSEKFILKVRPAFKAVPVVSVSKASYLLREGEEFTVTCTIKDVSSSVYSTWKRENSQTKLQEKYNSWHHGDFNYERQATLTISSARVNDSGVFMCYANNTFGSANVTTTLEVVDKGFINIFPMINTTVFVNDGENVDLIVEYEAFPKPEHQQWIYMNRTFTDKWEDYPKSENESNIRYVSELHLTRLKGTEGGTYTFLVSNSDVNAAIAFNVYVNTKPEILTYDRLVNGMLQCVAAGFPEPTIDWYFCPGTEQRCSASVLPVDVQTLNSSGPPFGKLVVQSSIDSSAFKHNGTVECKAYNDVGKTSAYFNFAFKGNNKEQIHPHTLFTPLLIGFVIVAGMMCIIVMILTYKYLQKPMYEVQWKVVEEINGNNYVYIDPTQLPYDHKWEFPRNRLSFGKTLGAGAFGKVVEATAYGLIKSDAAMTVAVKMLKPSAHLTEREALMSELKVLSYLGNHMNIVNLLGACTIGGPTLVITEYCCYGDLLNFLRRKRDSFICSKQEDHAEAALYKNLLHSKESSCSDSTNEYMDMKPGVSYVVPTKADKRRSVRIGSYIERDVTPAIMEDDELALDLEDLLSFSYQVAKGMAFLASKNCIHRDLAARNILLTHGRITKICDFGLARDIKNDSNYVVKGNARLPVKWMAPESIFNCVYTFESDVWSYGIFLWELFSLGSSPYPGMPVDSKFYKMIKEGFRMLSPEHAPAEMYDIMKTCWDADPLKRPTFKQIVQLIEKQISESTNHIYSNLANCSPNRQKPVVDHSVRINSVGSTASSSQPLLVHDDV

Row | Substance | percent of designer T cells divided (CFSE dilution) in co-culture with KIT+ GIST882 cells [%]
1 | 1^st generation anti-KIT chimeric immune receptor (extracellular domain of KIT ligand fused to the CD3 zeta chain), expressed on human designer T cells | 39
2 | 2^nd generation anti-KIT chimeric immune receptor (extracellular domain of KIT ligand fused to CD28 and CD3 zeta), expressed on human designer T cells | 47
